Assays:
Assay in all cases: cell-based or functional assay
Elastase = biological target: Elastase
bovine trypsin = bovine trypsin (bovine, UniProt P00760 24-246)
chymotrypsin = biological target: chymotrypsin
ADAMTS4 = biological target: T1, ADAMTS4 (human, UniProt O75173 213-685, limits assumed)
T1 sequence (looked up): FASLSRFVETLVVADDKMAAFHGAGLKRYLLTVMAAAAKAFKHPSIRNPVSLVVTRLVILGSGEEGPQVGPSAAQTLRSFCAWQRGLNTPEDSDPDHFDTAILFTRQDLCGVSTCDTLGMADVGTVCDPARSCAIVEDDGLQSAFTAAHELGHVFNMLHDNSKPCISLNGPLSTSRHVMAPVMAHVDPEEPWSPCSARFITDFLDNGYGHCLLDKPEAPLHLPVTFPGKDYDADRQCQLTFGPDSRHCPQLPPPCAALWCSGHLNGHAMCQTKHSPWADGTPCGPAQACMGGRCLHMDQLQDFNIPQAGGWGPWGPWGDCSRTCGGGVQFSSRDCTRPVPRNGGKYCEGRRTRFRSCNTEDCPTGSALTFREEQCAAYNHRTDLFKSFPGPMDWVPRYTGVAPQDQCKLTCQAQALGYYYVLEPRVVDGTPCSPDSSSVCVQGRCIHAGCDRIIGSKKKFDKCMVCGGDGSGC

ADAMTS5 = biological target: T2, ADAMTS5 (human, UniProt Q9UNA0 262-622, limits assumed)
T2 sequence (looked up): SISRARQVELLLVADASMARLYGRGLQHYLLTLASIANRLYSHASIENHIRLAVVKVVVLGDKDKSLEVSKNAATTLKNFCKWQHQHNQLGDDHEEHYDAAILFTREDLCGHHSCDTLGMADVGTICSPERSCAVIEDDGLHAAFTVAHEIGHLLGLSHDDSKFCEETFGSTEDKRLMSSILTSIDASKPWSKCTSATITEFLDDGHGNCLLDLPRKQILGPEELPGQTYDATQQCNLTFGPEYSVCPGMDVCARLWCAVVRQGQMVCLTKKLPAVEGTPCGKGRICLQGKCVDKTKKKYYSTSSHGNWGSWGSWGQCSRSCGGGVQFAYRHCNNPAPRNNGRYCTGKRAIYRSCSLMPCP

MMP1 = biological target: T3, MMP1 (human, UniProt P03956 100-469, limits assumed)
T3 sequence (looked up): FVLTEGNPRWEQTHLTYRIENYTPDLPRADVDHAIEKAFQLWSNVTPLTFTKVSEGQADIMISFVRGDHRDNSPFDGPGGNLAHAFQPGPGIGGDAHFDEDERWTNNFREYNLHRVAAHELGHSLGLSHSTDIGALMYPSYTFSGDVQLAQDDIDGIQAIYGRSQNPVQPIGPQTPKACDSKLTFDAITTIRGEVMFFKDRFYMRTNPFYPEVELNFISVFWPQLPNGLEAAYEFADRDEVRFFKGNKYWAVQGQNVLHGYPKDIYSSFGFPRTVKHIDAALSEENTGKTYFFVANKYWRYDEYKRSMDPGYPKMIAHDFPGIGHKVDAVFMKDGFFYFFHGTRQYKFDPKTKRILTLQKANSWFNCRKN

MMP8 = MMP8 (human, UniProt P22894 101-467, limits assumed)
MMP13 = MMP13 (human, UniProt P45452 104-471, limits assumed)
MMP2 = biological target: T4, MMP2 (human, UniProt P08253 110-660, limits assumed)
T4 sequence (looked up): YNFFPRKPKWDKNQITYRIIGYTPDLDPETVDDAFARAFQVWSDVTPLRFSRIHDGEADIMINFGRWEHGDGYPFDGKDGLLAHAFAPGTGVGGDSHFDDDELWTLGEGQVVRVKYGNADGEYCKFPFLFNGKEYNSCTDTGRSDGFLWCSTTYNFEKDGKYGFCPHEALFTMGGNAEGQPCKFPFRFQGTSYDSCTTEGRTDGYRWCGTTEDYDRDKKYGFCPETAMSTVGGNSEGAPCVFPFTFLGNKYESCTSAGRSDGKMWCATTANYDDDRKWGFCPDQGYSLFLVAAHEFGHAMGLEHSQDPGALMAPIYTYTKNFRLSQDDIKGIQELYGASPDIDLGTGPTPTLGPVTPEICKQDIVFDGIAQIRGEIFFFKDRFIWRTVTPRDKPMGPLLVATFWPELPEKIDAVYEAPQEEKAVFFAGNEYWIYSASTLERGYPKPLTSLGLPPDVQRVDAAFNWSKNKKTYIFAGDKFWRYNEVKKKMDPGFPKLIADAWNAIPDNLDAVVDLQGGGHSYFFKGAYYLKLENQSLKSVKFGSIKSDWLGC

MMP9 = MMP9 (human, UniProt P14780 107-707, limits assumed)
MMP3 = MMP3 (human, UniProt P08254 100-477, limits assumed)
Cathepsin G = biological target: T5, Cathepsin G (UniProt P08311 21-244)
T5 sequence (looked up): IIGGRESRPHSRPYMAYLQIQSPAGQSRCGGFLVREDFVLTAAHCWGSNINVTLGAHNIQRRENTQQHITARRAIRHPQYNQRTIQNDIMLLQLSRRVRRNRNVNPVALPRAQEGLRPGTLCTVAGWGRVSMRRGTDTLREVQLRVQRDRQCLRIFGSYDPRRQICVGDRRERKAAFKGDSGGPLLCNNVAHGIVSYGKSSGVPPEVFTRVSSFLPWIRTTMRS

MMP12 = MMP12 (human, UniProt P39900 106-470, limits assumed)
Chain of MMP12 (P39900 106-470 limits assumed): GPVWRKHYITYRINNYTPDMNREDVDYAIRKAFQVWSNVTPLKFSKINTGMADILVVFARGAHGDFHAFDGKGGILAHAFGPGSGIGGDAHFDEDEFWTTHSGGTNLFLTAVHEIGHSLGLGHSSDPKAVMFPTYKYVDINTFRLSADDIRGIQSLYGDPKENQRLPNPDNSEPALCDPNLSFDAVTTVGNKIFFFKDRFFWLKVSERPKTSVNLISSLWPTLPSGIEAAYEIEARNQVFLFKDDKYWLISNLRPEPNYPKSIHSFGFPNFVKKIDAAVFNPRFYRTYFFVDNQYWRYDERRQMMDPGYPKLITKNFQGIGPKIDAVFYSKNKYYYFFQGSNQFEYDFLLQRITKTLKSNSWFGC

Chain of MMP9 (P14780 107-707 limits assumed): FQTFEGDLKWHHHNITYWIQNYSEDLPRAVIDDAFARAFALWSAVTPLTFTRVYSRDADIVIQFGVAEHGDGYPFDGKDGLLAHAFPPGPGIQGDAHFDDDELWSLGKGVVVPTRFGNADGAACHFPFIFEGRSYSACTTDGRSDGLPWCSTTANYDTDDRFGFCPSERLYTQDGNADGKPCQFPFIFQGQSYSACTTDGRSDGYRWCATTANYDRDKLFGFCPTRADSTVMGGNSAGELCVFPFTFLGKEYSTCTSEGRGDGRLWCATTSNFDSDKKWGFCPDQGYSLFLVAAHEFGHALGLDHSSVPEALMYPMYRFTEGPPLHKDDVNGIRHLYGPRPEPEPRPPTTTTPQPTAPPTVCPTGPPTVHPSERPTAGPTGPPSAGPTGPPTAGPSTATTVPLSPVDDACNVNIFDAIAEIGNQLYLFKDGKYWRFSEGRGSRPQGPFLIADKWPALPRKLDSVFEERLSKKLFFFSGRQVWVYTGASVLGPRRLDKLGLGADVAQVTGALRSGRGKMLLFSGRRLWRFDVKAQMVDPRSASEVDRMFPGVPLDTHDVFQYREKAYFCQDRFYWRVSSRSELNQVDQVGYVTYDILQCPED
Chain of MMP8 (P22894 101-467 limits assumed): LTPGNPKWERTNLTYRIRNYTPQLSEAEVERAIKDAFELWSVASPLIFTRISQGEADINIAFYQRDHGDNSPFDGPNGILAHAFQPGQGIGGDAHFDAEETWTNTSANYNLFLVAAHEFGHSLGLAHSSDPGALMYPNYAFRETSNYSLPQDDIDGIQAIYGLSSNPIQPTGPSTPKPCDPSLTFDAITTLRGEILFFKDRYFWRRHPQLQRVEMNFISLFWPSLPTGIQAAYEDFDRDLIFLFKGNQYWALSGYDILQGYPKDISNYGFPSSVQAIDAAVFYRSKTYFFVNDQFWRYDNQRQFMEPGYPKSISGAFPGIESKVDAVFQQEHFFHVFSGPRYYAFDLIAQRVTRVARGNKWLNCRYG
Chain of bovine trypsin (P00760 24-246): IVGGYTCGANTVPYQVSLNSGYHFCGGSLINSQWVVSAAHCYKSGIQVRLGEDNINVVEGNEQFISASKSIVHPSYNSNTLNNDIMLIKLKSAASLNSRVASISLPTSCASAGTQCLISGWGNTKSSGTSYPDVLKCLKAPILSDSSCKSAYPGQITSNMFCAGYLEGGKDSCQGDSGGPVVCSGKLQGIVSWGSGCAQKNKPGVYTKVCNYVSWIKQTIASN
Chain of MMP3 (P08254 100-477 limits assumed): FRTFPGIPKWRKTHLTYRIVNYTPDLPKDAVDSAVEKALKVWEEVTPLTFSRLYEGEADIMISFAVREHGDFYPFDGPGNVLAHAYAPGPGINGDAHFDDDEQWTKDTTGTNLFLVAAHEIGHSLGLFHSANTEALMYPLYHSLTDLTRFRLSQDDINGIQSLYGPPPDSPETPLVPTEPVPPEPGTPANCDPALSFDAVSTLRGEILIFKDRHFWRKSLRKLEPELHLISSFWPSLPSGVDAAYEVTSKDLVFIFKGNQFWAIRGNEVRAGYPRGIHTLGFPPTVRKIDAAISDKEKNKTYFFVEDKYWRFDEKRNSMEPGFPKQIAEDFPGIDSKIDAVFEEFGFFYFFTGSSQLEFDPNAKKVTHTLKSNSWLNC

Row | Binder | Protease Inhibition (% of WT) (Elastase) | Protease Inhibition (% of WT) (bovine trypsin) | Protease Inhibition (% of WT) (chymotrypsin) | Protease Inhibition (% of WT) (ADAMTS4) | Protease Inhibition (% of WT) (ADAMTS5) | Protease Inhibition (% of WT) (MMP1) | Protease Inhibition (% of WT) (MMP8) | Protease Inhibition (% of WT) (MMP13) | Protease Inhibition (% of WT) (MMP2) | Protease Inhibition (% of WT) (MMP9) | Protease Inhibition (% of WT) (MMP3) | Protease Inhibition (% of WT) (Cathepsin G) | Protease Inhibition (% of WT) (MMP12)
1 | Variant A2M, bait region SEQ ID NO 108 (other) SVSGKPQYMVLVPSLLHTETTEKGCVLLSYLNETVTVSASLESVRGNRSLFTDLEAENDVLHCVAFAVPKSSSNEEVMFLTVQVKGPTQEFKKRTTVMVKNEDSLVFVQTDKSIYKPGQTVKFRVVSMDENFHPLNELIPLVYIQDPKGNRIAQWQSFQLEGGLKQFSFPLSSEPFQGSYKVVVQKKSGGRTEHPFTVEEFVLPKFEVQVTVPKIITILEEEMNVSVCGLYTYGKPVPGHVTVSICRKYSDASDCHGEDSQAFCEKFSGQLNSHGCFYQQVKTKVFQLKRKEYEMKLHTEAQIQEEGTVVELTGRQSSEITRTITKLSFVKVDSHFRQGIPFFGQVRLVDGKGVPIPNKVIFIRGNEANYYSNATTDEHGLVQFSINTTNVMGTSLTVRVNYKDRSPCYGYQWVSEEHEEAHHTAYLVFSPSKSFVHLEPMSHELPCGHTQTVQAHYILNGGTLLGLKKLSFYYLIMAKGGIVRTGTHGLLVKQEDMKGHFSISIPVKSDIAPVARLLIYAVLPTGDVIGDSAKYDVENCLANKVDLSFSPSQSLPASHAHLRVTAAPQSVCALRAVDQSVLLMKPDAELSASSVYNLLPEKDLTGFPGPLNDQDDEDCINRHNVYINGITYTPVSSTNEKDMYSFLEDMGLKAFTNSKIRKPKMCPQLEQYEMHGPEGLRVGEAIPMSIPTSEDLVVQIPENFFGVKLRKYFPETWIWDLVVVNSAGVAEVGVTVPDTITEWKAGAFCLSEDAGLGISSTASLRAFQPFFVELTMPYSVIRGEAFTLKATVLNYLPKCIRVSVQLEASPAFLAVPVEKEQAPHCICANGRQTVSWAVTPKSLGNVNFTVSAEALESQELCGTEVPSVPEHGRKDTVIKPLLVEPEGLEKETTFNSLLCPSGGEVSEELSLKLPPNVVEESARASVSVLGDILGSAMQNTQNLLQMPYGCGEQNMVLFAPNIYVLDYLNETQQLTPEIKSKAIGYLNTGYQRQLNYKHYDGSYSTFGERYGRNQGNTWLTAFVLKTFAQARAYIFIDEAHITQALIWLSQRQKDNGCFRSSGSLLNNAIKGGVEDEVTLSAYITIALLEIPLTVTHPVVRNALFCLESAWKTAQEGDHGSHVYTKALLAYAFALAGNQDKRKEVLKSLNEEAVKKDNSVHWERPQKPKAPVGHFYEPQAPSAEVEMTSYVLLAYLTAQPAPTSEDLTSATNIVKWITKQQNAQGGFSSTQDTVVALHALSKYGAATFTRTGKAAQVTIQSSGTFSSKFQVDNNNRLLLQQVSLPELPGEYSMKVTGEGCVYLQTSLKYNILPEKEEFPFALGVQTLPQTCDEPKAHTSFQISLSVSYTGSRSASNMAIVDVKMVSGFIPLKPTVKMLERSNHVSRTEVSSNHVLIYLDKVSNQTLSLFFTVLQDVPVRDLKPAIVKVYDYYETDEFAIAEYNAPCSKDLGNADYKDDDDKGASHHHHHH | 50 % of WT | 100 % of WT | 100 % of WT | 50 % of WT | 90 % of WT | 390 % of WT | 40 % of WT | 350 % of WT | 110 % of WT | 70 % of WT | 330 % of WT |  | 
2 | Variant A2M, bait region SEQ ID NO 130 (other) SVSGKPQYMVLVPSLLHTETTEKGCVLLSYLNETVTVSASLESVRGNRSLFTDLEAENDVLHCVAFAVPKSSSNEEVMFLTVQVKGPTQEFKKRTTVMVKNEDSLVFVQTDKSIYKPGQTVKFRVVSMDENFHPLNELIPLVYIQDPKGNRIAQWQSFQLEGGLKQFSFPLSSEPFQGSYKVVVQKKSGGRTEHPFTVEEFVLPKFEVQVTVPKIITILEEEMNVSVCGLYTYGKPVPGHVTVSICRKYSDASDCHGEDSQAFCEKFSGQLNSHGCFYQQVKTKVFQLKRKEYEMKLHTEAQIQEEGTVVELTGRQSSEITRTITKLSFVKVDSHFRQGIPFFGQVRLVDGKGVPIPNKVIFIRGNEANYYSNATTDEHGLVQFSINTTNVMGTSLTVRVNYKDRSPCYGYQWVSEEHEEAHHTAYLVFSPSKSFVHLEPMSHELPCGHTQTVQAHYILNGGTLLGLKKLSFYYLIMAKGGIVRTGTHGLLVKQEDMKGHFSISIPVKSDIAPVARLLIYAVLPTGDVIGDSAKYDVENCLANKVDLSFSPSQSLPASHAHLRVTAAPQSVCALRAVDQSVLLMKPDAELSASSVYNLLPEKDLTGFPGPLNDQDDEDCINRHNVYINGITYTPVSSTNEKDMYSFLEDMGLKAFTNSKIRKPKMCPQLEQYEMHGPSEDLVVQIEGEGEGEGIPENFFGVEAIPMSIPTVEEPHTKLRKYFPETWIWDLVVVNSAGVAEVGVTVPDTITEWKAGAFCLSEDAGLGISSTASLRAFQPFFVELTMPYSVIRGEAFTLKATVLNYLPKCIRVSVQLEASPAFLAVPVEKEQAPHCICANGRQTVSWAVTPKSLGNVNFTVSAEALESQELCGTEVPSVPEHGRKDTVIKPLLVEPEGLEKETTFNSLLCPSGGEVSEELSLKLPPNVVEESARASVSVLGDILGSAMQNTQNLLQMPYGCGEQNMVLFAPNIYVLDYLNETQQLTPEIKSKAIGYLNTGYQRQLNYKHYDGSYSTFGERYGRNQGNTWLTAFVLKTFAQARAYIFIDEAHITQALIWLSQRQKDNGCFRSSGSLLNNAIKGGVEDEVTLSAYITIALLEIPLTVTHPVVRNALFCLESAWKTAQEGDHGSHVYTKALLAYAFALAGNQDKRKEVLKSLNEEAVKKDNSVHWERPQKPKAPVGHFYEPQAPSAEVEMTSYVLLAYLTAQPAPTSEDLTSATNIVKWITKQQNAQGGFSSTQDTVVALHALSKYGAATFTRTGKAAQVTIQSSGTFSSKFQVDNNNRLLLQQVSLPELPGEYSMKVTGEGCVYLQTSLKYNILPEKEEFPFALGVQTLPQTCDEPKAHTSFQISLSVSYTGSRSASNMAIVDVKMVSGFIPLKPTVKMLERSNHVSRTEVSSNHVLIYLDKVSNQTLSLFFTVLQDVPVRDLKPAIVKVYDYYETDEFAIAEYNAPCSKDLGNADYKDDDDKGASHHHHHH | 103 % of WT | 250 % of WT | 100 % of WT | 110 % of WT | 211 % of WT | 283 % of WT | 180 % of WT | 146 % of WT | 109 % of WT | 100 % of WT |  | 311 % of WT | 124 % of WT

— patent US20230250154A1 (CYTONICS, published 2023)
